Data taken from paper PMC3548793.

Columns and labels:
[1] = biological target: T1, GFP-Sec13, P55735; test: co-immunoprecipitation and western blotting; conditions: chain shown with the change;; parent: 0.8
T1 chain: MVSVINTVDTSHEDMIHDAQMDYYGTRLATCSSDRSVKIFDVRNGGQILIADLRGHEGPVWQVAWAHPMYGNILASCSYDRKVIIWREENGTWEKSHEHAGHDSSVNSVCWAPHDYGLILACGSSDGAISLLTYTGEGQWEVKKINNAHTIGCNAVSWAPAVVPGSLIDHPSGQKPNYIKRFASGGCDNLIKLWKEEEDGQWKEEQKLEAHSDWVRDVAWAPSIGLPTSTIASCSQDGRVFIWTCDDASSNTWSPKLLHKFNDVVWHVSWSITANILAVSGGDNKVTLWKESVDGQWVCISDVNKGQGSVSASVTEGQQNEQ

[2] = biological target: GFP-tagged Sec23, Q15436; test: co-immunoprecipitation (anti-GFP beads) and western blotting, single blot quantified; conditions: chain shown with the change; HEK293 cells co-transfected; parent: 1
[3] = biological target: GFP-tagged Sec23, Q15436; test: co-immunoprecipitation (anti-GFP beads) and western blotting, mean of three experiments; conditions: chain shown with the change; HEK293 cells co-transfected; parent: est. 1.0; read off a plot

Chain of GFP-tagged Sec23, Q15436 (Q15436 whole entry): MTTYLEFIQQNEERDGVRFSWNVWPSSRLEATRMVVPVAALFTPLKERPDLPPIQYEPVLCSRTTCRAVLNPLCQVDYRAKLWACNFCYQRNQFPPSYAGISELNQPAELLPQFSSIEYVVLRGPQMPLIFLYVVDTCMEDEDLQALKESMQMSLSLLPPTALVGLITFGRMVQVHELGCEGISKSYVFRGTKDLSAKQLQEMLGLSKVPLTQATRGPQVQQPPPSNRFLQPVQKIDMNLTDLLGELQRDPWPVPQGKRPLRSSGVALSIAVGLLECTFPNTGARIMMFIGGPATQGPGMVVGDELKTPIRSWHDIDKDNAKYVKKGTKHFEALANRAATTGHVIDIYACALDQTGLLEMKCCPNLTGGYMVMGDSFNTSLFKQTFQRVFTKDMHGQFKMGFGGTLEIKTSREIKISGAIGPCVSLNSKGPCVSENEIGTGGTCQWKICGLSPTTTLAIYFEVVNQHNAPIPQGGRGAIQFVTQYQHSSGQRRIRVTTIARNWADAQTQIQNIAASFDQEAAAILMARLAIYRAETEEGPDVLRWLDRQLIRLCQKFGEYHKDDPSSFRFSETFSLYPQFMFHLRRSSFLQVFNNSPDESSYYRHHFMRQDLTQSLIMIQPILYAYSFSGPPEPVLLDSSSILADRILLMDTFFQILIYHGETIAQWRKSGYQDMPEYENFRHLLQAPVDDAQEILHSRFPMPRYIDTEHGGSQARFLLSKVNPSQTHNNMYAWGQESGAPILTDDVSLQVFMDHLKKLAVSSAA

Row | Binder | other: normalized ratio of co-IP'ed Sec31 [1] | ratio to parent [2] | ratio to parent [3]
1 | FLAG-tagged wild type (WT) Sec31, O94979 S527A (protein) MKLKEVDRTAMQAWSPAQNHPIYLATGTSAQQLDATFSTNASLEIFELDLSDPSLDMKSCATFSSSHRYHKLIWGPYKMDSKGDVSGVLIAGGENGNIILYDPSKIIAGDKEVVIAQNDKHTGPVRALDVNIFQTNLVASGANESEIYIWDLNNFATPMTPGAKTQPPEDISCIAWNRQVQHILASASPSGRATVWDLRKNEPIIKVSDHSNRMHCSGLAWHPDVATQMVLASEDDRLPVIQMWDLRFASSPLRVLENHARGILAIAWSMADPELLLSCGKDAKILCSNPNTGEVLYELPTNTQWCFDIQWCPRNPAVLSAASFDGRISVYSIMGGSTDGLRQKQVDKLSSSFGNLDPFGTGQPLPPLQIPQQTAQHSIVLPLKKPPKWIRRPVGASFSFGGKLVTFENVRMPSHQGAEQQQQQHHVFISQVVTEKEFLSRSDQLQQAVQSQGFINYCQKKIDASQTEFEKNVWSFLKVNFEDDSRGKYLELLGYRKEDLGKKIALALNKVDGANVALKDSDQVAQADGEESPAAEEQLLGEHIKEEKEESEFLPSSGGTFNISVSGDIDGLITQALLTGNFESAVDLCLHDNRMADAIILAIAGGQELLARTQKKYFAKSQSKITRLITAVVMKNWKEIVESCDLKNWREALAAVLTYAKPDEFSALCDLLGTRLENEGDSLLQTQACLCYICAGNVEKLVACWTKAQDGSHPLSLQDLIEKVVILRKAVQLTQAMDTSTVGVLLAAKMSQYANLLAAQGSIAAALAFLPDNTNQPNIMQLRDRLCRAQGEPVAGHESPKIPYEKQQLPKGRPGPVAGHHQMPRVQTQQYYPHGENPPPPGFIMHGNVNPNAAGQLPTSPGHMHTQVPPYPQPQPYQPAQPYPFGTGGSAMYRPQQPVAPPTSNAYPNTPYISSASSYTGQSQLYAAQHQASSPTSSPATSFPPPPSSGASFQHGGPGAPPSSSAYALPPGTTGTLPAASELPASQRTGPQNGWNDPPALNRVPKKKKMPENFMPPVPITSPIMNPLGDPQSQMLQQQPSAPVPLSSQSSFPQPHLPGGQPFHGVQQPLGQTGMPPSFSKPNIEGAPGAPIGNTFQHVQSLPTKKITKKPIPDEHLILKTTFEDLIQRCLSSATDPQTKRKLDDASKRLEFLYDKLREQTLSPTITSGLHNIARSIETRNYSEGLTMHTHIVSTSNFSETSAFMPVLKVVLTQANKLGV | 1 | 1 | 0.9
2 | FLAG-tagged wild type (WT) Sec31, O94979 S527A; S799A (protein) MKLKEVDRTAMQAWSPAQNHPIYLATGTSAQQLDATFSTNASLEIFELDLSDPSLDMKSCATFSSSHRYHKLIWGPYKMDSKGDVSGVLIAGGENGNIILYDPSKIIAGDKEVVIAQNDKHTGPVRALDVNIFQTNLVASGANESEIYIWDLNNFATPMTPGAKTQPPEDISCIAWNRQVQHILASASPSGRATVWDLRKNEPIIKVSDHSNRMHCSGLAWHPDVATQMVLASEDDRLPVIQMWDLRFASSPLRVLENHARGILAIAWSMADPELLLSCGKDAKILCSNPNTGEVLYELPTNTQWCFDIQWCPRNPAVLSAASFDGRISVYSIMGGSTDGLRQKQVDKLSSSFGNLDPFGTGQPLPPLQIPQQTAQHSIVLPLKKPPKWIRRPVGASFSFGGKLVTFENVRMPSHQGAEQQQQQHHVFISQVVTEKEFLSRSDQLQQAVQSQGFINYCQKKIDASQTEFEKNVWSFLKVNFEDDSRGKYLELLGYRKEDLGKKIALALNKVDGANVALKDSDQVAQADGEESPAAEEQLLGEHIKEEKEESEFLPSSGGTFNISVSGDIDGLITQALLTGNFESAVDLCLHDNRMADAIILAIAGGQELLARTQKKYFAKSQSKITRLITAVVMKNWKEIVESCDLKNWREALAAVLTYAKPDEFSALCDLLGTRLENEGDSLLQTQACLCYICAGNVEKLVACWTKAQDGSHPLSLQDLIEKVVILRKAVQLTQAMDTSTVGVLLAAKMSQYANLLAAQGSIAAALAFLPDNTNQPNIMQLRDRLCRAQGEPVAGHEAPKIPYEKQQLPKGRPGPVAGHHQMPRVQTQQYYPHGENPPPPGFIMHGNVNPNAAGQLPTSPGHMHTQVPPYPQPQPYQPAQPYPFGTGGSAMYRPQQPVAPPTSNAYPNTPYISSASSYTGQSQLYAAQHQASSPTSSPATSFPPPPSSGASFQHGGPGAPPSSSAYALPPGTTGTLPAASELPASQRTGPQNGWNDPPALNRVPKKKKMPENFMPPVPITSPIMNPLGDPQSQMLQQQPSAPVPLSSQSSFPQPHLPGGQPFHGVQQPLGQTGMPPSFSKPNIEGAPGAPIGNTFQHVQSLPTKKITKKPIPDEHLILKTTFEDLIQRCLSSATDPQTKRKLDDASKRLEFLYDKLREQTLSPTITSGLHNIARSIETRNYSEGLTMHTHIVSTSNFSETSAFMPVLKVVLTQANKLGV | 1.2 |  | 
3 | FLAG-tagged wild type (WT) Sec31, O94979 S527A; S799A; T1165A (protein) MKLKEVDRTAMQAWSPAQNHPIYLATGTSAQQLDATFSTNASLEIFELDLSDPSLDMKSCATFSSSHRYHKLIWGPYKMDSKGDVSGVLIAGGENGNIILYDPSKIIAGDKEVVIAQNDKHTGPVRALDVNIFQTNLVASGANESEIYIWDLNNFATPMTPGAKTQPPEDISCIAWNRQVQHILASASPSGRATVWDLRKNEPIIKVSDHSNRMHCSGLAWHPDVATQMVLASEDDRLPVIQMWDLRFASSPLRVLENHARGILAIAWSMADPELLLSCGKDAKILCSNPNTGEVLYELPTNTQWCFDIQWCPRNPAVLSAASFDGRISVYSIMGGSTDGLRQKQVDKLSSSFGNLDPFGTGQPLPPLQIPQQTAQHSIVLPLKKPPKWIRRPVGASFSFGGKLVTFENVRMPSHQGAEQQQQQHHVFISQVVTEKEFLSRSDQLQQAVQSQGFINYCQKKIDASQTEFEKNVWSFLKVNFEDDSRGKYLELLGYRKEDLGKKIALALNKVDGANVALKDSDQVAQADGEESPAAEEQLLGEHIKEEKEESEFLPSSGGTFNISVSGDIDGLITQALLTGNFESAVDLCLHDNRMADAIILAIAGGQELLARTQKKYFAKSQSKITRLITAVVMKNWKEIVESCDLKNWREALAAVLTYAKPDEFSALCDLLGTRLENEGDSLLQTQACLCYICAGNVEKLVACWTKAQDGSHPLSLQDLIEKVVILRKAVQLTQAMDTSTVGVLLAAKMSQYANLLAAQGSIAAALAFLPDNTNQPNIMQLRDRLCRAQGEPVAGHEAPKIPYEKQQLPKGRPGPVAGHHQMPRVQTQQYYPHGENPPPPGFIMHGNVNPNAAGQLPTSPGHMHTQVPPYPQPQPYQPAQPYPFGTGGSAMYRPQQPVAPPTSNAYPNTPYISSASSYTGQSQLYAAQHQASSPTSSPATSFPPPPSSGASFQHGGPGAPPSSSAYALPPGTTGTLPAASELPASQRTGPQNGWNDPPALNRVPKKKKMPENFMPPVPITSPIMNPLGDPQSQMLQQQPSAPVPLSSQSSFPQPHLPGGQPFHGVQQPLGQTGMPPSFSKPNIEGAPGAPIGNTFQHVQSLPTKKITKKPIPDEHLILKTTFEDLIQRCLSSATDPQTKRKLDDASKRLEFLYDKLREQTLSPAITSGLHNIARSIETRNYSEGLTMHTHIVSTSNFSETSAFMPVLKVVLTQANKLGV | 1.4 | 2.3 | 2.3
4 | FLAG-tagged wild type (WT) Sec31, O94979 S799A (protein) MKLKEVDRTAMQAWSPAQNHPIYLATGTSAQQLDATFSTNASLEIFELDLSDPSLDMKSCATFSSSHRYHKLIWGPYKMDSKGDVSGVLIAGGENGNIILYDPSKIIAGDKEVVIAQNDKHTGPVRALDVNIFQTNLVASGANESEIYIWDLNNFATPMTPGAKTQPPEDISCIAWNRQVQHILASASPSGRATVWDLRKNEPIIKVSDHSNRMHCSGLAWHPDVATQMVLASEDDRLPVIQMWDLRFASSPLRVLENHARGILAIAWSMADPELLLSCGKDAKILCSNPNTGEVLYELPTNTQWCFDIQWCPRNPAVLSAASFDGRISVYSIMGGSTDGLRQKQVDKLSSSFGNLDPFGTGQPLPPLQIPQQTAQHSIVLPLKKPPKWIRRPVGASFSFGGKLVTFENVRMPSHQGAEQQQQQHHVFISQVVTEKEFLSRSDQLQQAVQSQGFINYCQKKIDASQTEFEKNVWSFLKVNFEDDSRGKYLELLGYRKEDLGKKIALALNKVDGANVALKDSDQVAQSDGEESPAAEEQLLGEHIKEEKEESEFLPSSGGTFNISVSGDIDGLITQALLTGNFESAVDLCLHDNRMADAIILAIAGGQELLARTQKKYFAKSQSKITRLITAVVMKNWKEIVESCDLKNWREALAAVLTYAKPDEFSALCDLLGTRLENEGDSLLQTQACLCYICAGNVEKLVACWTKAQDGSHPLSLQDLIEKVVILRKAVQLTQAMDTSTVGVLLAAKMSQYANLLAAQGSIAAALAFLPDNTNQPNIMQLRDRLCRAQGEPVAGHEAPKIPYEKQQLPKGRPGPVAGHHQMPRVQTQQYYPHGENPPPPGFIMHGNVNPNAAGQLPTSPGHMHTQVPPYPQPQPYQPAQPYPFGTGGSAMYRPQQPVAPPTSNAYPNTPYISSASSYTGQSQLYAAQHQASSPTSSPATSFPPPPSSGASFQHGGPGAPPSSSAYALPPGTTGTLPAASELPASQRTGPQNGWNDPPALNRVPKKKKMPENFMPPVPITSPIMNPLGDPQSQMLQQQPSAPVPLSSQSSFPQPHLPGGQPFHGVQQPLGQTGMPPSFSKPNIEGAPGAPIGNTFQHVQSLPTKKITKKPIPDEHLILKTTFEDLIQRCLSSATDPQTKRKLDDASKRLEFLYDKLREQTLSPTITSGLHNIARSIETRNYSEGLTMHTHIVSTSNFSETSAFMPVLKVVLTQANKLGV | 1 | 1.4 | 1.5
